Reference: US20240318135A1

Legend:
[1] = biological target: MART-1 peptide on HLA-A*02:01 (human); assay: NFAT-eGFP in TnT-TCR cells after overnight co-culture with peptide-pulsed T2 cells, FIG. 8C; full-length, on cells
[2] = biological target: HLA-A*0201-… MHC dextramer (human); assay: flow cytometry, serial dilutions of the target pMHC dextramer on TnT-TCR cells, pMHC-dex+ cells (% of max), three-parameter fit, n=3; the concentration is that of the dextramer
[3] = biological target: HLA-A*0201-… MHC dextramer (human); assay: flow cytometry of TnT-TCR cells stained with fluorescently-labelled pMHC dextramer and anti-CD3
[4] = biological target: NY-ESO-1 peptide … presented by HLA*A0201 on T2 cells (human)
[5] = biological target: MART-1 peptide … presented by HLA*A0201 on T2 cells (human)
[6] = biological target: MART-1 peptide … presented by HLA*A0201 on T2 cells (human); assay: cell-based or functional assay
[7] = biological target: HLA-A*0201-… MHC dextramer (human); assay: flow cytometry, serial dilutions of pMHC dextramer on TnT-TCR cells; EC50 of normalized dextramer saturation curves

difference of peptide EC50 between DMF4 and DMF5 [1] [fold]	EC50 [2] [nM]	Q2 (percent of cells CD3+ and [..] pMHC dex+) (% (unit not given)) [3]	EC50 (peptide concentration for half-maximal GFP+ cells, NFAT-GFP reporter) [4] [nM]	EC50 (peptide concentration for half-maximal GFP+ cells, NFAT-GFP reporter) [5] [nM]	fold difference in functional EC50 between DMF4 and DMF5 [6] [fold]	fold lower EC50 than DMF4 [7] [fold]	Substance
< 2							DMF5
	0.0568	96.1	167				TCR 1G4
	0.267	48		14.2			TCR DMF4
	0.00692	99.1		8.13	< 2	39	TCR DMF5
